From patent publication US20190092839A1 (INSTITUTE FOR BASIC SCIENCE, published 2019)

Target: T1, iRFP-pMagH-C-term VHHActin
T1 construct: not shown: iRFP fluorescent protein of the piRFP construct (Addgene 31857)
Assay: inferred from relocalisation of fluorescence in HeLa cells after 488 nm light (nMagH with pMagH)

T1 sequence (chain, as listed by the source): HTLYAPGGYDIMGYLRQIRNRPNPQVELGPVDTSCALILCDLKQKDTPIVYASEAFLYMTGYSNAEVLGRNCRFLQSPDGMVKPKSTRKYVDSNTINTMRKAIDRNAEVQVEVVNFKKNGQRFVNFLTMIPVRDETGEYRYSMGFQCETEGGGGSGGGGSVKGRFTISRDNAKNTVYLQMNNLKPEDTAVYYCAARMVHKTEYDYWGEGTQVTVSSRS

binding result: binds
B1: N-term VHHActin-nMagH-mCherry (other)
chain: MAQVQLVESGGGLTQAGGSLRLSCATSGLIFSAFGMGWFRQAPGKEREFVGGINWRGSTNYGDFGGGGSGGGGSHTLYAPGGYDIMGYLDQIGNRPNPQVELGPVDTSCALILCDLKQKDTPIVYASEAFLYMTGYSNAEVLGRNCRFLQSPDGMVKPKSTRKYVDSNTINTIRKAIDRNAEVQVEVVNFKKNGQRFVNFLTIIPVRDETGEYRYSMGFQCETE
notes: not shown: mCherry red fluorescent protein of the pmCherry construct (engineered)
